Measurements as given in patent US20240252614A1.

Assays:
Details in all cases: remark: other sources report otherwise
[1] = molecular target: hMPV A F WT Control (hMPV A), Q6WB98; experiment: BLI, 53C stress
hMPV045 (hMPV A), Q6WB98 = experiment: BLI, 53C stress
hMPV046 (hMPV A), Q6WB98 = experiment: BLI, 53C stress
hMPV048 (hMPV A), Q6WB98 = experiment: BLI, 53C stress
hMPV052 (hMPV A), Q6WB98 = experiment: BLI, 53C stress
hMPV059 (hMPV A), Q6WB98 = experiment: BLI, 53C stress
hMPV062 (hMPV A), Q6WB98 = experiment: BLI, 53C stress
hMPV068 (hMPV A), Q6WB98 = experiment: BLI, 53C stress
hMPV069 (hMPV A), Q6WB98 = experiment: BLI, 53C stress
hMPV075 (hMPV A), Q6WB98 = experiment: BLI, 53C stress
[2] = molecular target: hMPV A F WT Control (hMPV A), Q6WB98; experiment: BLI, 53C stress; remark: listed apart in the source
hMPV078 (hMPV A), Q6WB98 [3] = experiment: BLI, 53C stress
hMPV079 (hMPV A), Q6WB98 [4] = experiment: BLI, 53C stress
hMPV081 (hMPV A), Q6WB98 [5] = experiment: BLI, 53C stress
hMPV082 (hMPV A), Q6WB98 [6] = experiment: BLI, 53C stress
hMPV083 (hMPV A), Q6WB98 [7] = experiment: BLI, 53C stress
hMPV084 (hMPV A), Q6WB98 [8] = experiment: BLI, 53C stress
hMPV085 (hMPV A), Q6WB98 [9] = experiment: BLI, 53C stress
hMPV086 (hMPV A), Q6WB98 [10] = experiment: BLI, 53C stress
hMPV087 (hMPV A), Q6WB98 [11] = experiment: BLI, 53C stress
hMPV088 (hMPV A), Q6WB98 [12] = experiment: BLI, 53C stress
hMPV089 (hMPV A), Q6WB98 [13] = experiment: BLI, 53C stress
hMPV090 (hMPV A), Q6WB98 [14] = experiment: BLI, 53C stress
hMPV097 (hMPV A), Q6WB98 [15] = experiment: BLI, 53C stress
[16] = molecular target: hMPV A F WT Control (hMPV A), Q6WB98; experiment: BLI, 58C stress
hMPV078 (hMPV A), Q6WB98 [17] = experiment: BLI, 58C stress
hMPV079 (hMPV A), Q6WB98 [18] = experiment: BLI, 58C stress
hMPV081 (hMPV A), Q6WB98 [19] = experiment: BLI, 58C stress
hMPV082 (hMPV A), Q6WB98 [20] = experiment: BLI, 58C stress
hMPV083 (hMPV A), Q6WB98 [21] = experiment: BLI, 58C stress
hMPV084 (hMPV A), Q6WB98 [22] = experiment: BLI, 58C stress
hMPV085 (hMPV A), Q6WB98 [23] = experiment: BLI, 58C stress
hMPV086 (hMPV A), Q6WB98 [24] = experiment: BLI, 58C stress
hMPV087 (hMPV A), Q6WB98 [25] = experiment: BLI, 58C stress
hMPV088 (hMPV A), Q6WB98 [26] = experiment: BLI, 58C stress
hMPV089 (hMPV A), Q6WB98 [27] = experiment: BLI, 58C stress
hMPV090 (hMPV A), Q6WB98 [28] = experiment: BLI, 58C stress
hMPV097 (hMPV A), Q6WB98 [29] = experiment: BLI, 58C stress

B1: MPE8 mAb (antibody, V domains shown)
VH: EVQLVESGGGLVKPGGSLRLSCAASGFTFSSYSMNWVRQAPGKGLEWVSSISASSSYSDYADSAKGRFTISRDNAKTSLFLQMNSLRAEDTAIYFCARARATGYSSITPYFDIWGQGTLVTVSS
VL: QSVVTQTPSVSGAPGQRVTISCTGSSSNIGAGYDVHWYQQLPGTAPKLLIYDNNNRPSGVPDRFSASKSGTSASLAITGLQAEDEADYYCQSYDRNLSGVFGTGTKVTVL
**Q.** Which results are given for B1?
**A.** Response Shift [1]: -0.017 nm; Response Shift (hMPV045 (hMPV A), Q6WB98): -0.025 nm; Response Shift (hMPV046 (hMPV A), Q6WB98): -0.012 nm; Response Shift (hMPV048 (hMPV A), Q6WB98): -0.056 nm; Response Shift (hMPV052 (hMPV A), Q6WB98): -0.045 nm; Response Shift (hMPV059 (hMPV A), Q6WB98): -0.039 nm; Response Shift (hMPV062 (hMPV A), Q6WB98): 0.006 nm; Response Shift (hMPV068 (hMPV A), Q6WB98): 0.002 nm; Response Shift (hMPV069 (hMPV A), Q6WB98): -0.003 nm; Response Shift (hMPV075 (hMPV A), Q6WB98): -0.069 nm; Response Shift [2]: 0.096 nm; Response Shift (hMPV078 (hMPV A), Q6WB98 [3]): 0.939 nm; Response Shift (hMPV079 (hMPV A), Q6WB98 [4]): 0.861 nm; Response Shift (hMPV081 (hMPV A), Q6WB98 [5]): 0.915 nm; Response Shift (hMPV082 (hMPV A), Q6WB98 [6]): 0.985 nm; Response Shift (hMPV083 (hMPV A), Q6WB98 [7]): 0.796 nm; Response Shift (hMPV084 (hMPV A), Q6WB98 [8]): 0.908 nm; Response Shift (hMPV085 (hMPV A), Q6WB98 [9]): 0.889 nm; Response Shift (hMPV086 (hMPV A), Q6WB98 [10]): 0.86 nm; Response Shift (hMPV087 (hMPV A), Q6WB98 [11]): 0.903 nm; Response Shift (hMPV088 (hMPV A), Q6WB98 [12]): 0.937 nm; Response Shift (hMPV089 (hMPV A), Q6WB98 [13]): 0.928 nm; Response Shift (hMPV090 (hMPV A), Q6WB98 [14]): 0.909 nm; Response Shift (hMPV097 (hMPV A), Q6WB98 [15]): 0.935 nm; Response Shift [16]: 0.006 nm; Response Shift (hMPV078 (hMPV A), Q6WB98 [17]): 0.939 nm; Response Shift (hMPV079 (hMPV A), Q6WB98 [18]): 0.867 nm; Response Shift (hMPV081 (hMPV A), Q6WB98 [19]): 0.945 nm; Response Shift (hMPV082 (hMPV A), Q6WB98 [20]): 0.928 nm; Response Shift (hMPV083 (hMPV A), Q6WB98 [21]): 0.768 nm; Response Shift (hMPV084 (hMPV A), Q6WB98 [22]): 0.665 nm; Response Shift (hMPV085 (hMPV A), Q6WB98 [23]): 0.757 nm; Response Shift (hMPV086 (hMPV A), Q6WB98 [24]): 0.736 nm; Response Shift (hMPV087 (hMPV A), Q6WB98 [25]): 0.805 nm; Response Shift (hMPV088 (hMPV A), Q6WB98 [26]): 0.812 nm; Response Shift (hMPV089 (hMPV A), Q6WB98 [27]): 0.917 nm; Response Shift (hMPV090 (hMPV A), Q6WB98 [28]): 0.906 nm; Response Shift (hMPV097 (hMPV A), Q6WB98 [29]): 0.918 nm
